Results as given in publication doi:10.1101/701797 (bioRxiv, 2019).
Where “and” joins values, the source holds several entries; their conditions need not be identical. Equal values may be shown once.

B1: wild-type phospholamban (natural protein, dog, UniProt P61012 1-52, looked up)
chain: MDKVQYLTRSAIRRASTIEMPQQARQNLQNLFINFCLILICLLLICIIVMLL
B2: I48A mutant of C41L-PLB (natural protein, dog, UniProt P61012 1-52, looked up)
chain: MDKVQYLTRSAIRRASTIEMPQQARQNLQNLFINFCLILILLLLICIAVMLL
B3: L39A mutant of C41L-PLB (natural protein, dog, UniProt P61012 1-52, looked up)
chain: MDKVQYLTRSAIRRASTIEMPQQARQNLQNLFINFCLIAILLLLICIIVMLL
B4: C41L-PLB (natural protein, dog, UniProt P61012 1-52, looked up)
chain: MDKVQYLTRSAIRRASTIEMPQQARQNLQNLFINFCLILILLLLICIIVMLL
B5: I38A mutant of C41L-PLB (natural protein, dog, UniProt P61012 1-52, looked up)
chain: MDKVQYLTRSAIRRASTIEMPQQARQNLQNLFINFCLALILLLLICIIVMLL
B6: L42A mutant of C41L-PLB (natural protein, dog, UniProt P61012 1-52, looked up)
chain: MDKVQYLTRSAIRRASTIEMPQQARQNLQNLFINFCLILILALLICIIVMLL

Tests used:
[1] = biological target: the molecule itself; assay: SDS-PAGE oligomerization assay
[2] = biological target: the molecule itself; assay: SDS-PAGE oligomerization assay; remark: listed apart in the source
[3] = biological target: the molecule itself; assay: SDS-PAGE oligomerization assay with immunoblot

| Protein | stoichiometry N [1] | stoichiometry N [2] | stoichiometry N [3] |
| --- | --- | --- | --- |
| B1 | 5 | > 6 | 2 and 4 and ~6 |
| B2 |  |  | 5 |
| B3 |  |  | 4 |
| B4 |  |  | 4 |
| B5 |  |  | 4 |
| B6 |  |  | 4 |
